Test: yeast display, Sf9 membrane polyspecificity reagent, FACS + sequencing; frameworks hold sequencing errors
Method in brief: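 Sorting gates, low and high (top ~1%), were placed on anti-HA fluorescence to track expression and on streptavidin fluorescence to track reagent binding. A clone's polyreactivity label is taken from the gate it came out of. The reagent was 10% biotinylated, detergent-solubilized Sf9 membrane, applied for 1 hour at 4 °C to galactose-induced yeast display cells.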

Sequence	polyreactivity (PSR sort gate)
QVQLVESGGGLVQAGGSLRLSCAASGRIFRLYAMGWYRQAPGKERELVATITSGGTYYADSVKGRFTISRDNAKNTVYLQMNSLKPEDTAVYYCAADVYPGYVGSEEYDYWGQGTQETVSS	low polyreactivity
QVQLVESGGGLVQAGGSLRLSCAASGRIFALYTMGWYIQAPGKERELVAAITTSGGSTYADSVKGRFTISRDNAKNTVYLQMNSLKPEDTAVYYCNAQGYEGLGEFDYWGQGTQLTVSS	low polyreactivity
QVQLVESGGGLVQAGGSLRLSCAASGGIFRGYAMGWYRQAPGKERELVAAITKRGGRTYYADSVKGRFTISRDNAKNTVYLQMNSLNPEDTAVFYCAADYYAAYHLPDLDYDYWGQGTQVTVSS	high polyreactivity
QVQLVESGRGLVQAGGSLRISCAASGSIFRVNAMGWYRQAPGKERELVASISKTGTRTYYADSVKGRFTISRDNAKITVYLQMNSLKPEDTAVYYCAADKPRREYDYWGQGTQVTVSS	low polyreactivity
QVQLVESGGGLVQAGGSLRLSCAASGIIFAYYAMGGYRHAPGKERELVAAISRSGGITYYADSVKGRFSISRDNAKNTVYLQMNSLKPEDTAVYDCARFSSRPYDYWGQGTQVTVSS	high polyreactivity
QVQLVESGGGLVQAGGSLRLSCPASGIIFNDYAMGWYRQAPGKEREMVAAITSNGDNTYYADSVKGRFTISRDNAKNTVYLQMNSLKPEDTAVYYCAVDGSFAADFDNYLEEYGYWGQGTQVTVSS	low polyreactivity
QVQLVESGGGLVQAGGSLRLSCAATGHTFHGYAMGWYRPAPGKERELVAAITSTGGSTHYADSVKGRFTISRDNAKNTVYLQMNSLKPEDTAVYYCAKRSYGLTRAYSAGNYWGQGTQVTVSS	low polyreactivity
QVHLVESGGGLVQAGGSLRLSCAASGRIFFPNAMGWYRQAPGKERELVAGISIGGSTKYADSVKGRFTISRDNAKNTVYLQMNSLKPEDTAVYYCAAGRGRHTYNYWGQGTQVTVSS	low polyreactivity
QVQLVESGGGLVQAGGSLRLSCAASGSTSDINAMGWYRQARGKEWQLVAVITDSSNTDYADSVKGRFTISRDNAKNTVYLEMNSLKPEETAVYYCAADRDEPDPYDYWGPGTQVTVSS	low polyreactivity
QVQLVESGGGLVQAGGSLRLSCAASGSTFDAYDMGWYRQAPGTERELVADINWSGGITYYADSVKGRFRISRDNAKNTVYLQMNSLKPEDTAVYYCNADASFYSRVNYWGQGTQVTVSS	high polyreactivity
QVQLVESGGGLVQAGGSLRLSCAASGSIFYFNPMGWYRPAPGKERELVAAISWSGRTYYADSVKGRFTISRDNAKKTVYLQMNSLKPEDTAVYYCNAAYHYYGKYDYWGQGTQVTVSS	high polyreactivity
QVQLVESGGGLVQAGGSLRLTCAASGSIFDYYAMGWYRQAPGKEWELVAAISNGGTTNYADSVKGRFTLSRDNAKNTVYLQMNRLKPEDTAVYYCNADSALYDKAVIYSEYDYWGQGTQVTVSS	low polyreactivity
QVQLVESGGGLVQAGGSLRLSCAASGSIFDYNAMGWYRQAPGKERELVAGITFIGGSTYYADSVKGRFTISRDNAKNTVYLQMNSLKPEDTAVYYCNADVAPGIFYGYESWGQGTQVSVSS	low polyreactivity
QVQLVVSGGGLVHAGGSLRLSCAASGNTIFYYDLGGYIQAPGKERELVADITSRGTRTYYADSVKGRFTISRDKAKNTVYLQMNSLKPEDTAVYYCNKARGVAYDWGQGTQVTVSS	high polyreactivity
QVQLVESGGGLVQAGDSLRLSCAASGSIFAWKTKGWYRQAPGTERELVAAISSGDSTYYADSVKGRFTISRDNAKNPVYLQMNSLKPEDTAVYYCAATYYQDRRRGYWGQGTQVTVSS	high polyreactivity
QVQLVESGGGLVQAGGSLRLSCAASGRIFGRYAMGWYRPAPGKERELVAAISRSGGSTYYADSVKGRFTISRDNAKNTVYLHMNSLKPEDTAVYYCAAERWTRRHYSGNDYWGQGTQVTVSS	low polyreactivity
QVQLVESGGGLVQAGGSLRLSCAASGFTFGNNAMGWYRQAPGKERELVAGISRTGGRTYYADSVKGRFTISRDNAKNTVYLQMNSLKPEDTAVYYCNAVSTLYTGYDYWGQGTQVTVSS	high polyreactivity
QVQLVESGGGLVQAGGSLRLSCAASGFTFVTNAMGWYRQAPGKERELVAAISRRGGSTYYADSVKGRFTISRDNAKNTVDLQMNSLKPEDTPVYYCNADRQRRRQFSFSSPYDYWGQGTQVTVSS	high polyreactivity
QVQLVESGGGLVQAGGSLRLSCAASGSTWWYDMGWSRQAPGKERELVASISSGDSTNYADSVKGRFTISRDNAKNTVYLQMNSLKPEDTAVYYCAADKNSRPAGKGSTGYGYDYWGQGTQVNVSS	low polyreactivity
QVQLLESGGGLVQAGGSLRLSCASSGRTFVRYGMGWSRQAPGKERELVAAITGSGSRTYYADSVKGRFTISRDNAKNTVYLQMNSLIPKDTAVYYCAGRGQGGAGDPRYPVYYWGQGTQVTVSS	high polyreactivity
QVQLVESGGGLVQAGGSLRLSCAASGSIFRGNAIGWYRQAPGKDRELVAAISWNGVSTYYADSVKGRFTISRDNAKHTVYLQMNSLKPEDTAVYYCPTVGLRRLFVKPGTLKDYWGQGTQVTVSS	low polyreactivity
QVQLVESGGGLVQAGGSLRLSCAASGRIFVDYAMGWNRQAPGKERELVAAISWSGRTYYADSVKGRFTISRDNAKNTVYLQMNSLKPEDTAVYYCNAAYHYYGKYDYWGQGTQVTVSS	high polyreactivity

Sequence	polyreactivity (PSR sort gate)
QVQLVESGGGLVQAGGSLRLSCAASGFIFYRNTMGWYRQAPGKEREFVAAIRWRGGSTYYADSVKGRFTISRDNAKNTVYLQMNSLKPEDTAVYYCAADTRPGYSGFEYWGQGTQVTVSS	high polyreactivity
QVQLVESGGGLVQAGGSLRLSCAASGRIFCFNAMGWYRQAPGKERELVAAISGTGGSTYYADSEKGRFTISRDNAKNTVYLQMNSLKPEDTAVYYCAAFYNYYGQRYYYWGQGTQVTVSS	high polyreactivity
QVQLVESGGGLVQAGGSRRLSCAAAGISFGWYSMGWYRQAPGKERELVATISQSGTSTYYADSVKGRFTISRDNAKNTVYLQMNSLKPEDTAVYYCAADYIRGYYYRVPLEVDYWGQGNQVTVSS	low polyreactivity
QVQLVESAGGLVQAGASLRLSCAASGSIFGGYAMGWYRQAPGTERELVAAISSGDSTYYADSVKGRFTISRDNAKNTVYLQMNSLKPEDTAVYYCARRYTRSYYKLGKLNYWGQGTQVTVSS	high polyreactivity
QVQLVESGGGLVQAGGSLRLSCAASGRTFYYNAMGWYRQAPGKERELVAAITYSGGSTYYADSVKGRFTISRDNAKNTVYLQMNSLKPEDTAVYYCAADVYRPAGNWEHYYWGQGNQVTVSS	low polyreactivity
QVQLVESGGGLVQAGGSLRLSCAASGYIFGYNAMGWYRQAPGKERELVATINSSDSTNYADSVKGRFTISRDNAKNTVYLQMNSLKPEDTAVYYCNKDHVRRSYPYDYWGQGTQVTVSS	low polyreactivity
QVQLVESGGGLVQAGGSLRLSCAASGSTFQTYAMGWFRQAPGQERELVAAITSGGSTNYADSVKGRFTISRDNAKNTVSLQMNSLKPEDTAVYYCNKKSRRQYDYWGQGTQVTVSS	low polyreactivity
QVQLVESGGGLVRAGGSLRLSCAASGSTFDINAMGWYRQAPGKERELVASITFSGGSTYYADSVKGRFTISRDNAKNTVYLQMNSLKPEDTAVYYCNKDEPQFSSYLYSFYPGYDYWGQGTQVTVSS	low polyreactivity
QVQLVESGGGLVQAGGSLRLSCAASGNIFIKNAMGWYRQAPGKERELVAAISFSGGSTYYADSVKGRFTISRDNAKNTVYLQMNSLKPEDTAVYYCNAVRRQARQYDYWGQGTQVTVSS	high polyreactivity
QVQLQESGGGLVQAGGSLSLSCAASGSISAVGAMGWYRKAPGKERELAASVNWCTNTNYADSVKGRFTISRDNAKNTLYLQMNSLKPEDTAVYYCAVLPDWETRHDYWGHGTQVTVSS	low polyreactivity
QVQLVESGGGLVQAGGSLRLSCAASGSTFWVYAMGWYRQAPGKERELVATISRGGSTNYADSVKGRFTISRDNAKNTVYLQMNSLKPEDTAVYYCAAPRFYGYGYEYCGQGTQVTVSS	low polyreactivity
QVQLVESGGGLVQAGRSLRLSCAASGSPLYSYAMGWYRQAPGKEREFVAAITSDDGSTYYADSVKGRFTISRDNAKNTVYLPLTSLKPEDTAVYYCATAASVEYNYWGQCTQVTVSS	low polyreactivity
QVQLVESGGGLVQAGGSLRLSCAASGSINHYAMGWYRQAPGKERELVAAISSSGGTTYYADSVKGRFTISRDNAKNTVYLQMNSLKPEDTAVYYCAADKLSGGLDYWGQGTQVTVSS	high polyreactivity
QVQLVESGGGLVQAGGSLRLSCAASGSTFLKNAMGWSRQAPGKERELVAAISYSTTRTYYADSVKGRFTISRDNAKNTVYLQMNSLKPEDTAVYYCNKASYWGSGFDYWGQGTQVTVSS	low polyreactivity
QVQLVESGGGLVQAGGSLRLSCAASGRIFVYNVMGWYRQAPGKERELVAAISWGTGSTYADSVKGRFTISRDNAKNSVNLQMNSLKPDDTAVYYCAKESTVRRYDYWGLGTQVTVSS	low polyreactivity
QVQREESGGGLVQAGGSLRLSCAASGLTFTTYAMGWYRQAPGKERELVAAISRRGSRTYYADSVKGRFTISRDNAKNTVYLQMNSLKPEDTAVYYCNALTGSFKTYSFDYWGQGSQVTVSS	high polyreactivity
QVQLVESGGGLVQAGGSLRLSCAASGFTFGSYAMGWYRQAPGKEREFVAAIRRSGSSTYYADSVKGRFTISRDNAKNTVYLQMTSLKPEDTAVYYCAADVYRRLRRYRYYYWGQGTQVTVSS	low polyreactivity
QVQLVESGGRLVQAGGSLRLTLAASGNTRGSYAMGWYRQAPGKEREFVATISKRGGSTYYADSVKGRFTISRDNAKNTVYLQMNSLKPEDTAVYYCNKDPYSIYRPGSGQGYAFNYWGQGTQVTVSS	high polyreactivity
QVQLVESGGGLVQAGGSLRLSSAASGRTFYKYAMGWYRQAPGKERELVAAISWNGGSTYYADSVKGRFTISRDNAKNTVYLQMNSLKPEDTAVYYCNVVNQRSRTGDYWGQGTQVTVSS	high polyreactivity
QGQRVESGGGLVQAGGSLRLSCAASGRIFTFYAMGWYRPAPGKERELVAAITWGDGSTYYADSVKGRFTISRDNAKNTVYLQMNSLKPEDTAVYYCNKTYIDTTVYVVIMDYWGQGTQVTVSS	low polyreactivity
QVQLVESGGGLVQAGGSLRLSCAASGSTFYGNAMGWYRQAPGKERELVAAISWSGGSTYYADSVKGRFTISRDNAKNTVYLQMNSLKPEDTAVYYCNKDVLLYYVYGHDYWGQGTQVTVSS	low polyreactivity

— the nanobody polyreactivity screen of Harvey et al. (2022)
